The chains are these.
B1: Zinc finger homeobox protein 3, residues 2147 to 2202; numbered along this chain, Q15911 (parent)
chain: RPRTRITDDQLRVLRQYFDINNSPSEEQIKEMADKSGLPQKVIKHWFRNTLFKERQ

± gives the uncertainty stated by the source.

This series covers variants of B1. Nature of the series: abundance fitness (aPCA) (normalised: wild type 0, dead -1); higher = more abundant; growth selection in yeast, the domain comes from the species named. The conditions noted are these: Homo sapiens.
Consider RPRTRITDDQLGVLRQYFDINNSPSEEQIKEMADKSGLPQKVIKHWFRNTLFKERQ [R12G], for which the abundance fitness was -0.067 ± 0.063.

For RPRTRITDDQLWVLRQYFDINNSPSEEQIKEMADKSGLPQKVIKHWFRNTLFKERQ [R12W], the abundance fitness is -0.456 ± 0.072.

For RPRTRITDDQLVVLRQYFDINNSPSEEQIKEMADKSGLPQKVIKHWFRNTLFKERQ [R12V], the abundance fitness amounted to 0.04 ± 0.065. In the case of RPRTRITDDQLFVLRQYFDINNSPSEEQIKEMADKSGLPQKVIKHWFRNTLFKERQ [R12F] it was -0.193 ± 0.12. RPRTRITDDQLIVLRQYFDINNSPSEEQIKEMADKSGLPQKVIKHWFRNTLFKERQ [R12I]: the abundance fitness was 0.046 ± 0.098. In the case of RPRTRITDDQLSVLRQYFDINNSPSEEQIKEMADKSGLPQKVIKHWFRNTLFKERQ [R12S] it was 0.018 ± 0.071; in that of RPRTRITDDQLLVLRQYFDINNSPSEEQIKEMADKSGLPQKVIKHWFRNTLFKERQ [R12L], -0.085 ± 0.064; in that of RPRTRITDDQLTVLRQYFDINNSPSEEQIKEMADKSGLPQKVIKHWFRNTLFKERQ [R12T], -0.205 ± 0.076.

Regarding RPRTRITDDQLKVLRQYFDINNSPSEEQIKEMADKSGLPQKVIKHWFRNTLFKERQ [R12K], the abundance fitness is 0.051 ± 0.092. In the case of RPRTRITDDQLCVLRQYFDINNSPSEEQIKEMADKSGLPQKVIKHWFRNTLFKERQ [R12C] it was -0.067 ± 0.084; in that of RPRTRITDDQLNVLRQYFDINNSPSEEQIKEMADKSGLPQKVIKHWFRNTLFKERQ [R12N], -0.061 ± 0.11; in that of RPRTRITDDQLPVLRQYFDINNSPSEEQIKEMADKSGLPQKVIKHWFRNTLFKERQ [R12P], -0.477 ± 0.086.

As for RPRTRITDDQLRVYRQYFDINNSPSEEQIKEMADKSGLPQKVIKHWFRNTLFKERQ [L14Y], the abundance fitness is -1.02 ± 0.17. In the case of RPRTRITDDQLRVTRQYFDINNSPSEEQIKEMADKSGLPQKVIKHWFRNTLFKERQ [L14T] it was -0.942 ± 0.12. In the case of RPRTRITDDQLRVKRQYFDINNSPSEEQIKEMADKSGLPQKVIKHWFRNTLFKERQ [L14K] it was -1.03 ± 0.18.

As for RPRTRITDDQLRVERQYFDINNSPSEEQIKEMADKSGLPQKVIKHWFRNTLFKERQ [L14E], the abundance fitness was -0.947 ± 0.12. For RPRTRITDDQLRVFRQYFDINNSPSEEQIKEMADKSGLPQKVIKHWFRNTLFKERQ [L14F] the value was -0.064 ± 0.16; for RPRTRITDDQLRVARQYFDINNSPSEEQIKEMADKSGLPQKVIKHWFRNTLFKERQ [L14A], -0.951 ± 0.094; for RPRTRITDDQLRVVRQYFDINNSPSEEQIKEMADKSGLPQKVIKHWFRNTLFKERQ [L14V], -0.49 ± 0.076. RPRTRITDDQLRVGRQYFDINNSPSEEQIKEMADKSGLPQKVIKHWFRNTLFKERQ [L14G]: the abundance fitness is -0.876 ± 0.076. For RPRTRITDDQLRVHRQYFDINNSPSEEQIKEMADKSGLPQKVIKHWFRNTLFKERQ [L14H] the value was -0.666 ± 0.14.

RPRTRITDDQLRVIRQYFDINNSPSEEQIKEMADKSGLPQKVIKHWFRNTLFKERQ [L14I]: the abundance fitness is -0.217 ± 0.15.

RPRTRITDDQLRVRRQYFDINNSPSEEQIKEMADKSGLPQKVIKHWFRNTLFKERQ [L14R]: the abundance fitness is -0.982 ± 0.083. For RPRTRITDDQLRVQRQYFDINNSPSEEQIKEMADKSGLPQKVIKHWFRNTLFKERQ [L14Q] the value was -1.13 ± 0.15; for RPRTRITDDQLRVDRQYFDINNSPSEEQIKEMADKSGLPQKVIKHWFRNTLFKERQ [L14D], -0.932 ± 0.16; for RPRTRITDDQLRVWRQYFDINNSPSEEQIKEMADKSGLPQKVIKHWFRNTLFKERQ [L14W], -0.721 ± 0.1. In the case of RPRTRITDDQLRVPRQYFDINNSPSEEQIKEMADKSGLPQKVIKHWFRNTLFKERQ [L14P] it was -1.05 ± 0.16; in that of RPRTRITDDQLRVSRQYFDINNSPSEEQIKEMADKSGLPQKVIKHWFRNTLFKERQ [L14S], -0.998 ± 0.11; in that of RPRTRITDDQLRVNRQYFDINNSPSEEQIKEMADKSGLPQKVIKHWFRNTLFKERQ [L14N], -1.22 ± 0.21. In the case of RPRTRITDDQLRVMRQYFDINNSPSEEQIKEMADKSGLPQKVIKHWFRNTLFKERQ [L14M] it was 0.058 ± 0.1; in that of RPRTRITDDQLRVLRHYFDINNSPSEEQIKEMADKSGLPQKVIKHWFRNTLFKERQ [Q16H], -0.101 ± 0.16. Regarding RPRTRITDDQLRVLRAYFDINNSPSEEQIKEMADKSGLPQKVIKHWFRNTLFKERQ [Q16A], the abundance fitness is -0.065 ± 0.076.

Regarding RPRTRITDDQLRVLRFYFDINNSPSEEQIKEMADKSGLPQKVIKHWFRNTLFKERQ [Q16F], the abundance fitness was -0.196 ± 0.18. For RPRTRITDDQLRVLRVYFDINNSPSEEQIKEMADKSGLPQKVIKHWFRNTLFKERQ [Q16V] the value was -0.162 ± 0.074. Take RPRTRITDDQLRVLRNYFDINNSPSEEQIKEMADKSGLPQKVIKHWFRNTLFKERQ [Q16N]: the abundance fitness is -0.174 ± 0.29.

For the variant RPRTRITDDQLRVLRSYFDINNSPSEEQIKEMADKSGLPQKVIKHWFRNTLFKERQ [Q16S], the abundance fitness was 0.122 ± 0.076.

Regarding RPRTRITDDQLRVLRKYFDINNSPSEEQIKEMADKSGLPQKVIKHWFRNTLFKERQ [Q16K], the abundance fitness worked out at 0.092 ± 0.093.

RPRTRITDDQLRVLRPYFDINNSPSEEQIKEMADKSGLPQKVIKHWFRNTLFKERQ [Q16P]: the abundance fitness is -0.242 ± 0.1. For RPRTRITDDQLRVLRRYFDINNSPSEEQIKEMADKSGLPQKVIKHWFRNTLFKERQ [Q16R] the value was 0.001 ± 0.062.

On to RPRTRITDDQLRVLRLYFDINNSPSEEQIKEMADKSGLPQKVIKHWFRNTLFKERQ [Q16L], for which the abundance fitness is -0.091 ± 0.076.

For the variant RPRTRITDDQLRVLRGYFDINNSPSEEQIKEMADKSGLPQKVIKHWFRNTLFKERQ [Q16G], the abundance fitness was 0.008 ± 0.068. RPRTRITDDQLRVLRTYFDINNSPSEEQIKEMADKSGLPQKVIKHWFRNTLFKERQ [Q16T]: the abundance fitness was -0.012 ± 0.091. In the case of RPRTRITDDQLRVLRMYFDINNSPSEEQIKEMADKSGLPQKVIKHWFRNTLFKERQ [Q16M] it was -0.01 ± 0.086. For RPRTRITDDQLRVLREYFDINNSPSEEQIKEMADKSGLPQKVIKHWFRNTLFKERQ [Q16E] the value was -0.045 ± 0.091; for RPRTRITDDQLRVLRDYFDINNSPSEEQIKEMADKSGLPQKVIKHWFRNTLFKERQ [Q16D], -0.025 ± 0.15; for RPRTRITDDQLRVLRIYFDINNSPSEEQIKEMADKSGLPQKVIKHWFRNTLFKERQ [Q16I], -0.469 ± 0.18. For RPRTRITDDQLRVLRWYFDINNSPSEEQIKEMADKSGLPQKVIKHWFRNTLFKERQ [Q16W] the value was -0.09 ± 0.075.

These data come from the Human Domainome abundance scans (Beltran et al. 2025).
